The chains are these.
T1: His-PDK1_(50-359) [PRK2-pocket] (UniProt O15530 50-359, K76Q | I119V | V127L | T128M | R131K | T148C | L155V)
T1 construct: also called PDK1 [PRK2-pocket]; His-PDK1 [PIF-pocket PRK2]; source: Sf9 (Bac-to-Bac), purified (nickel-nitrilotriacetic acid, gel filtration)
T1 sequence (looked up): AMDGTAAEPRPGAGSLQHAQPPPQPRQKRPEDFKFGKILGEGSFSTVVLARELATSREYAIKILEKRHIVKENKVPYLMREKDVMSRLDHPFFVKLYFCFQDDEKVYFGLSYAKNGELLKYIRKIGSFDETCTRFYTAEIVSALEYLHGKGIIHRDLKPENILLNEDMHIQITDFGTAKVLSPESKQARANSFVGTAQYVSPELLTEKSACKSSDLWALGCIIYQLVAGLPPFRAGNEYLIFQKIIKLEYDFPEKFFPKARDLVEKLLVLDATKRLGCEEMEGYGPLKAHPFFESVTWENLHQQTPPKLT

B1: His-PDK1_(1-556) (enzyme, UniProt O15530 1-556, looked up)
chain: MARTTSQLYDAVPIQSSVVLCSCPSPSMVRTQTESSTPPGIPGGSRQGPAMDGTAAEPRPGAGSLQHAQPPPQPRKKRPEDFKFGKILGEGSFSTVVLARELATSREYAIKILEKRHIIKENKVPYVTRERDVMSRLDHPFFVKLYFTFQDDEKLYFGLSYAKNGELLKYIRKIGSFDETCTRFYTAEIVSALEYLHGKGIIHRDLKPENILLNEDMHIQITDFGTAKVLSPESKQARANSFVGTAQYVSPELLTEKSACKSSDLWALGCIIYQLVAGLPPFRAGNEYLIFQKIIKLEYDFPEKFFPKARDLVEKLLVLDATKRLGCEEMEGYGPLKAHPFFESVTWENLHQQTPPKLTAYLPAMSEDDEDCYGNYDNLLSQFGCMQVSSSSSSHSLSASDTGLPQRSGSNIEQYIHDLDSNSFELDLQFSEDEKRLLLEKQAGGNPWHQFVENNLILKMGPVDKRKGLFARRRQLLLTEGPHLYYVDPVNKVLKGEIPWSQELRPEAKNFKTFFVHTPNRTYYLMDPSGNAHKWCRKIQEVWRQRYQSHPDAAVQ
notes: also called full-length PDK1; His-PDK1 FL; source: Sf9 (Bac-to-Bac), purified (nickel-nitrilotriacetic acid, gel filtration)
B2: His-PDK1_(50-359) (domain or fragment, UniProt O15530 50-359, looked up)
chain: T1 sequence (looked up) with Q27K, V70I, L78V, M79T, K82R, C99T, V106L
notes: also called catalytic domain of PDK1; source: Sf9 (Bac-to-Bac), purified (nickel-nitrilotriacetic acid, gel filtration)
B3: PIFtide (peptide)
peptide: REPRILSEEEQEMFRDFDYIADWC
notes: also called polypeptide PIF; HM polypeptide derived from the C terminus of PRK2; source: synthetic peptide (JPT Peptide Technologies)
B4: biotin-PIFtide (Cys → Ser) (peptide)
peptide: Biotin-REPRILSEEEQEMFRDFDYIADWS
notes: PIFtide, C-terminal region of PRK2, with the last Cys replaced by Ser; source: synthetic peptide (Pepscan)
B5: biotin-PKLtide (peptide)
peptide: Biotin-PKLQRQKKIFSKQQG
notes: polypeptide comprising the pseudosubstrate PKL region of PRK2; source: synthetic peptide (JPT Peptide Technologies)
B6: GST-PRK2_(643-984) WT (domain or fragment)
chain: not shown
modifications: phosphorylated at the activation loop (Thr816 in PRK2)
notes: PKC-related kinase 2 (PRK2/PKN2), catalytic domain with the C-terminal PIF/HM region, lacking the N-terminal 642 residues; also called isolated catalytic domain of PRK2; GST-PRK2 CD WT; source: HEK293T, transient transfection (pEBG2T-derived plasmid), purified
B7: GST-PRK2_(643-984) [T958A] (domain or fragment)
chain: not shown
modifications: phosphorylated at the activation loop (Thr816 in PRK2)
notes: source: HEK293T, transient transfection (pEBG2T-derived plasmid), purified

What all share (details): both partners purified
One assay concerns the target T2, GST-PRK2_(1-984) [T958A] (UniProt Q16513 1-984, T958A, phosphorylated at the activation loop (Thr816 in PRK2)).
T2 construct: also called full-length PRK2 T958A; source: HEK293T, transient transfection (pEBG2T-derived plasmid), purified
The experiment in a line: AlphaScreen or HTRF; competitive displacement of His-PDK1 / GST-PRK2 [T958A] complexes by varied PIFtide; 30 to 40 nM PDK1 versus 5 to 10 nM PRK2; nickel chelate acceptor beads and glutathione donor beads. (Alpha assays give light when donor and acceptor beads are brought close together.)

For the next assay, the target named is T3, GST-PRK2_(1-984) WT (UniProt Q16513 1-984, phosphorylated at the activation loop (Thr816 in PRK2)).
T3 construct: also called full-length PRK2; PKN2; source: HEK293T, transient transfection (pEBG2T-derived plasmid), purified
Briefly: AlphaScreen or HTRF; His-PDK1 fixed at 20 nM against varied GST-PRK2 constructs; nickel chelate acceptor beads and glutathione donor beads; 50 mM Tris-HCl pH 7.4 (or 20 mM Hepes pH 7.5), 100 mM NaCl, 1 to 2 mM DTT, 0.01% Tween 20, 0.1% BSA; 90 min at room temperature.

The target in assay [1] is B6. The experiment in a line: AlphaScreen or HTRF; His-PDK1 and GST-PRK2 at fixed concentrations (30 to 50 nM PDK1, 5 to 50 nM PRK2) with varied small compounds (PS210, GSK2334470, UCN-01, Y-27632); nickel chelate acceptor beads and glutathione donor beads.
For assay [2], the target named is B7. Described as above.
The target of assay [3] is B2. The experiment in a line: AlphaScreen or HTRF; competitive displacement of His-PDK1 / GST-PRK2 [T958A] complexes by varied PIFtide; 30 to 40 nM PDK1 versus 5 to 10 nM PRK2; nickel chelate acceptor beads and glutathione donor beads.
Assay [4] deals with B1. Described as above.
In assay [5] the target is B2. Briefly: AlphaScreen or HTRF; His-tagged PDK1 construct (30 nM) and biotin-PIFtide (Cys → Ser; 10 or 30 nM), cross-titration and displacement by small compounds; nickel chelate and streptavidin-coated beads.
The target of assay [6] is T1, His-PDK1_(50-359) [PRK2-pocket]. The assay is described as above.
Assay [7] addresses B6. The experiment in a line: AlphaScreen or HTRF; GST-PRK2_(643-984) (1.5 nM) and biotin-PKLtide (75 nM) with varied compounds or 5% DMSO; anti-GST-coated acceptor beads and streptavidin-coated donor beads.
In assay [8] the target is B1. Briefly: AlphaScreen or HTRF; His-PDK1 fixed at 20 nM against varied GST-PRK2 constructs; nickel chelate acceptor beads and glutathione donor beads; 50 mM Tris-HCl pH 7.4 (or 20 mM Hepes pH 7.5), 100 mM NaCl, 1 to 2 mM DTT, 0.01% Tween 20, 0.1% BSA; 90 min at room temperature.

Residue numbers refer to the chain shown, from its start. In names and notes the source's numbering stands. No end group written: not given here. *: point of attachment. Biotin = O=C1N[C@H]2[C@H](CS[C@H]2CCCCC(=O)*)N1

Take B1: the binding result with GST-PRK2_(1-984) [T958A] and with GST-PRK2_(1-984) WT was “binds” in each case. In the case of B2, the binding result (with GST-PRK2_(1-984) [T958A]; in the assay with GST-PRK2_(643-984) WT [1]; in assay [2]; in the assay with GST-PRK2_(1-984) WT) was “binds” throughout. With B3, the binding result with His-PDK1_(50-359) [3] and with His-PDK1_(1-556) [4] was “binds” throughout. Take B4: the binding result (in the assay with His-PDK1_(50-359) [5]; in [6]) was “binds” throughout.

On to B5, for which the binding result in the assay with GST-PRK2_(643-984) WT [7] is on record as “binds”. Consider B6, for which, in the assay with His-PDK1_(1-556) [8], the binding result was “binds”. Take B7: the binding result with His-PDK1_(1-556) [4] is given as “binds”.

The record behind these values is paper PMC11357854, “Molecular insights into the regulatory landscape of PKC-related kinase-2 (PRK2/PKN2) using targeted small compounds” (The Journal of Biological Chemistry, 2024).
